Reference: patent publication US20040224408A1, “THAP proteins as nuclear receptors for chemokines and roles in transcriptional regulation, cell proliferation and cell differentiation” (published 2004)

Experiments:
[1] = biological target: T1, human chemokine SLC/CCL21, mature form (amino acids 24-134) (human, UniProt O00585 24-134); assay: yeast two-hybrid, pGADT7-THAP1 mutant with pGBKT7-SLC/CCL21
T1 construct: also called SLC/6Ckine; SLC/CCL21 wild type
T1 sequence: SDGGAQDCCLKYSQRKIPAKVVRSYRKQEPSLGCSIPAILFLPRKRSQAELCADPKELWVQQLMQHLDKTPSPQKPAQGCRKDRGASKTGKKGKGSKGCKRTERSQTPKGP
Experimental: Two-hybrid interaction between THAP1 mutants and chemokine SLC/CCL21 was tested by cotransformation of AH109 with pGADT7-THAP1-C1, -C2, -C3, -N1, -N2 or -N3 and pGBKT7-SLC/CCL21 and selection of transformants by His and Ade double auxotrophy according to manufacturer's instructions ([…] two-hybrid system 3, Clontech). pGBKT7-SLC/CCL21 vector was generated by subcloning the BamHI SLC/CCL21 fragment from pGBT9-SLC (see example 1) into the unique BamHI cloning site of vector pGBKT7 (Clontech).

human THAP1 (THanatos …) [2] = biological target: T2, human THAP1 (THanatos (death)-Associated Protein-1), full length (human, UniProt Q9NVV9 1-213); assay: yeast two-hybrid, pGADT7-THAP1 mutant with pGBKT7-THAP1 wild-type
T2 construct: also called hTHAP1; FLJ10477
T2 sequence: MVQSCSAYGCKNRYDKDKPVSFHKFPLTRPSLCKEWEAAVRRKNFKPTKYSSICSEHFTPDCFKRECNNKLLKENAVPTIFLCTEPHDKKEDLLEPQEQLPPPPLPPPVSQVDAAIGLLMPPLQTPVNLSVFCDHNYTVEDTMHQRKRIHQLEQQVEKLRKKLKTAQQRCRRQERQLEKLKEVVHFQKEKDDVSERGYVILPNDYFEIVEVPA
Experimental: Two-hybrid interaction between THAP1 mutants and THAP1 wild type was tested by cotransformation of AH109 with pGADT7-THAP1-C1, -C2, -C3, -N1, -N2 or -N3 and pGBKT7-THAP1 wild-type and selection of transformants by His and Ade double auxotrophy according to manufacturer's instructions ([…] two-hybrid system 3, Clontech).

[3] = biological target: T3, GST-THAP1 fusion protein (pGEX-2T-THAP1) (human, UniProt Q5RCE4 1-213 (Pongo abelii entry)); assay: GST pull-down, immobilized GST-THAP1, in vitro translated 35S-labelled mutant
T3 construct: Expressed in E. coli DH5alpha and immobilized on glutathione sepharose; also called GST-THAP1 wild-type; not shown: Glutathione S-transferase (GST) encoded by the pGEX-2T prokaryotic expression vector (Amersham Pharmacia Biotech); N-ter
T3 sequence: T2 sequence
Experimental: To confirm the results obtained in yeast, THAP1 mutants were also tested in in vitro GST pull down assays. Wild type THAP1 expressed as a GST-tagged fusion protein and immobilized on glutathione sepharose (as described in example 16), was incubated with radiolabeled in vitro translated THAP1 mutants. In vitro-translated THAP1 mutants were generated with the TNT-coupled reticulocyte lysate system (Promega, Madison, Wis., USA) using pGADT7-THAP1-C1, -C2, -C3, -N1, -N2 or -N3 vector as template. 25 μl of each ³⁵S-labelled THAP1 mutant was incubated with immobilized GST or GST-THAP1 wild-type protein overnight at 4° C., in the following binding buffer: 10 mM NaPO4 pH 8.0, 140 mM NaCl, 3 mM MgCl2, 1 mM dithiothreitol (DTT), 0.05% NP40, and 0.2 mM phenylmethyl sulphonyl fluoride (PMSF), 1 mM Na Vanadate, 50 mM β Glycerophosphate, 25 μg/ml chimotrypsine, 5 μg/ml aprotinin, 10 μg/ml Leupeptin. Beads were then washed 5 times in 1 ml binding buffer. Bound proteins were eluted with 2×Laemmli SDS-PAGE sample buffer, fractionated by 10% SDS-PAGE and visualized by fluorography using Amplify (Amersham Pharmacia Biotech). As expected, THAP1-C1, -C2, -C3, -and -N3 interacted with GST/THAP1 (FIG. 16B).

human THAP1 (THanatos …) [4] = biological target: T2, human THAP1 (THanatos …); assay: yeast two-hybrid, pGADT7-THAP1 with pGBKT7-IFNγ
Text: […]

[5] = biological target: T3, GST-THAP1 fusion protein (pGEX-2T-THAP1); assay: GST pull-down, immobilized GST-THAP1, in vitro translated 35S-labelled IFNγ
Experimental: To confirm the interaction observed in yeast two-hybrid system, we performed in vitro GST pull down assays. THAP1, expressed as a GST-tagged fusion protein and immobilized on glutathione sepharose, was incubated with radiolabeled chemokines that were translated in vitro.
In vitro-translated chemokines were generated with the TNT-coupled reticulocyte lysate system (Promega, Madison, Wis., USA) using as templates pGBKT7-CCL21, -CCL19, -CXCL9, -CXCL10 and CXCL11 chemokine vectors (see Example 32) or pCMV-SPORT6-CCL5 plasmid (Image clone No. 4185200). In vitro-translated IFNγ cytokine was generated similarly using as template plasmid pGBKT7-IFNγ. A 25 μvolume of ³⁵S-labelled chemokine was incubated with immobilized GST-THAP1 or GST proteins overnight at 4° C., in the following binding buffer: 10 mM NaPO4 pH 8.0, 140 mM NaCl, 3 mM MgCl₂, 1 mM dithiothreitol (DTT), 0.05% NP40, and 0.2 mM phenylmethyl sulphonyl fluoride (PMSF), 1 mM Na vanadate, 50 mM β-glycerophosphate, 25 μg/ml chymotrypsine, 5 μg/ml aprotinin, and 10 μg/ml leupeptin. Beads were then washed 5 times in 1 ml binding buffer. Bound proteins were eluted with 2×Laemmli SDS-PAGE sample buffer, fractionated by 10% SDS-PAGE and visualized by fluorography using Amplify (Amersham Pharmacia Biotech). GST/THAP1 specifically bound to chemokines CCL21, CCL19, CCL5, CXCL9, CXCL10 and CXCL11 but not cytokine IFNγ (FIGS. 19 and 20). […]

[6] = biological target: T4, Glutathione S-transferase (GST) control protein (pGEX-2T) (UniProt P08515 1-218 = GST); assay: GST pull-down, immobilized GST control, in vitro translated 35S-labelled IFNγ
T4 construct: Negative control immobilized on glutathione sepharose; also called GST beads; immobilized GST alone
Experimental: In vitro-translated chemokines were generated with the TNT-coupled reticulocyte lysate system (Promega, Madison, Wis., USA) using as templates pGBKT7-CCL21, -CCL19, -CXCL9, -CXCL10 and CXCL11 chemokine vectors (see Example 32) or pCMV-SPORT6-CCL5 plasmid (Image clone No. 4185200). In vitro-translated IFNγ cytokine was generated similarly using as template plasmid pGBKT7-IFNγ. A 25 μvolume of ³⁵S-labelled chemokine was incubated with immobilized GST-THAP1 or GST proteins overnight at 4° C., in the following binding buffer: 10 mM NaPO4 pH 8.0, 140 mM NaCl, 3 mM MgCl₂, 1 mM dithiothreitol (DTT), 0.05% NP40, and 0.2 mM phenylmethyl sulphonyl fluoride (PMSF), 1 mM Na vanadate, 50 mM β-glycerophosphate, 25 μg/ml chymotrypsine, 5 μg/ml aprotinin, and 10 μg/ml leupeptin. Beads were then washed 5 times in 1 ml binding buffer. Bound proteins were eluted with 2×Laemmli SDS-PAGE sample buffer, fractionated by 10% SDS-PAGE and visualized by fluorography using Amplify (Amersham Pharmacia Biotech). GST/THAP1 specifically bound to chemokines CCL21, CCL19, CCL5, CXCL9, CXCL10 and CXCL11 but not cytokine IFNγ (FIGS. 19 and 20). […] CXCL10 also bound to immobilized GST-THAP1 (indicated by ++ in the column labelled “In vitro binding to GST-THAP1”).

Measured: binding result

T4 sequence (P08515 whole entry): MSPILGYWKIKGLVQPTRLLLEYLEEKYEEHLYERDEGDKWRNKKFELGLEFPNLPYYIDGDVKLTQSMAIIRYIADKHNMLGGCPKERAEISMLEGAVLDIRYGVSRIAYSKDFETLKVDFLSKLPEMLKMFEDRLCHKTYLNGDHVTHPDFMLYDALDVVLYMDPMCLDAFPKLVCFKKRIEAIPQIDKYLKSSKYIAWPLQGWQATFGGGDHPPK

B1: THAP1-N1 deletion mutant (amino acids 1-90) (other)
chain: MVQSCSAYGCKNRYDKDKPVSFHKFPLTRPSLCKEWEAAVRRKNFKPTKYSSICSEHFTPDCFKRECNNKLLKENAVPTIFLCTEPHDKK
notes: Tested as a Gal4-BD or Gal4-AD fusion, as in vitro translated 35S-labelled protein and as an EGFP fusion
no binding: [1] | human THAP1 (THanatos …) [2] | [3]

B2: human cytokine IFNγ (amino acids 21-166) (ligand)
chain: CYCQDPYVKEAENLKKYFNAGHSDVADNGTLFLGILKNWKEESDRKIMQSQIVSFYFKLFKNFKDDQSIQKSVETIKEDMNVKFFNSNKKKRDDFEKLTNYSVTDLNVQRKAIHELIQVMAELSPAAKTGKRKRSQMLFQGRRASQ
notes: Negative control; The range is stated on the GenBank entry; Tested as a Gal4-BD fusion (pGBKT7-IFNγ) and as in vitro translated 35S-labelled protein from that vector; also called interferon gamma; hIFNγ
no binding: human THAP1 (THanatos …) [4] | [5] | [6]
